# Variants at the floor of the assay were thinned out.
# B1: TPR 5TU (parent)
# chain: GGAUCUUCUCGAUCUAACAAAAAAGACAAAUCUGCCACAAAGCUUGAGAGCAUCUUCGGAUGCAGAGGCGGCAGCCUUCGGUGGCGCGAUAGCGCCAACGUUCUCAACUAUGACACGCAAAACGCGUGCUCCGUUGAAUGGAGUUUAUCAUG
# Variants of: B1
# Test: polymerase ribozyme fitness, log enrichment relative to wild type (log ratio); higher = more active; in vitro selection for triplet polymerase activity
# Procedure, shortened: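 Mutant libraries of both subunits of a heterodimeric triplet polymerase ribozyme were PCR-built, transcribed, and selected once in triplicate, with frozen incubation at −7 °C and capture of gel-excised extended constructs on streptavidin beads before RT-PCR. Illumina sequencing of input and output libraries was filtered to genotypes with ≥10 input reads and ≥1 read per output. Fitness is the logarithm of genotype enrichment over wild-type enrichment, using inverse-variance-weighted replicate averages. The logarithm is base 2.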
row,Variant,polymerase ribozyme fitness (log ratio)
1,G81C G143C,-2.03
2,G84A A89G G100C A115G C125U,≤ -4.2
3,G81C C85U A107C G126A,-4.16
4,G83C G84U C87U U102G A107U,≤ -4.2
5,G83A G141U,-0.659
6,G83U G92C U111A,≤ -4.2
7,U82C C85U C114A,-3.22
8,G83C C116U A120C U135G,-3.87
9,G81A C131G G140C,-4
10,G83C U146A,-0.565
11,G81U G92U U148G G152A,-3.95
12,G83A U90G G94C A110G G152U,≤ -4.2
13,U82G C118G,-1.09
14,G83A C85U,-1.94
15,G81A C85A G136A,0.0509
16,U82A A91G C105U,-2.53
17,G84A C93U,-1.83
18,G83C A89U G124U,-1.35
19,G81C C85U,0.0549
20,G81C G94U A98U U146G,-0.695
21,G84A U104C,-0.421
22,G81A U127C,-2.04
23,G81A U127G,-3.31
24,G81A C93G,-3.86

row,Variant,polymerase ribozyme fitness (log ratio)
1,G83C C131G,-3.32
2,G83U U139G,-0.239
3,G81A C105U,1.52
4,G83C G117U,-1.62
5,G83A C85U A106C C132G G140A,≤ -4.2
6,G83U G94U C116A C132G G140U,-3.11
7,G83C C125A G136U,-2.54
8,U82G C125G,-1.76
9,U82A A106G C123G U148G,-4.03
10,U82G G100U G128A,≤ -4.2
11,G83C C132A,-2.69
12,U82G A113G C125U,-3.28
13,U82A C96G,-0.244
14,G84A C103G C149U,-3.35
15,U82G G86A C96A,-2.04
16,G83A C99U G143A A147U,-3.6
17,G84A A115C,-0.594
18,G84A A115U,-2.62
19,G83U A97G A142U,-3.29
20,G83C C85G C103A,≤ -4.2
21,G84A A106G A142C,-0.922
22,U82A C93G,-3.41
23,U82C C95U C131G A142C,≤ -4.2
24,G84A A97U A147U,0.467

row,Variant,polymerase ribozyme fitness (log ratio)
1,G81C G126C,0.723
2,G81U G141A,0.321
3,U82C G84A G117U,-0.688
4,G84A C96G,-0.627
5,G83A G141U G143A,≤ -4.2
6,U82C C85A U145C,0.554
7,G83C U144C,-1.58
8,G83A A91U G100U,≤ -4.2
9,G84A U102A,-1.01
10,G83C C125U U146G,-3.89
11,G81U G84U A119U G143A,-1.61
12,U82G G141U,1.45
13,G83U A98C C123U C125U C129A,-3.47
14,G83A U146G,-1.33
15,G83U U127A,-3.18
16,U82G G92A,-2.96
17,U82G C85A C95U U146A A150U,-1.37
18,G83A A142G U148A,-4.11
19,G84A A120C C125U G136A,0.204
20,G83U C103U,0.2
21,G81A C87U G100U A115U C116U,-4.04
22,G83C U101G A106U,-3.95
23,G83C G84U A110C,≤ -4.2
24,G83U A107U G141U,≤ -4.2

row,Variant,polymerase ribozyme fitness (log ratio)
1,G84A U101A A115U A121G G124A,≤ -4.2
2,G83C C118U,-1.34
3,G83C C118G,-0.968
4,U82A G124A,0.114
5,G81A A89U G112A G133U C149U,≤ -4.2
6,U82G C95A A110U A138U,≤ -4.2
7,G83U C99G U145G,≤ -4.2
8,G84A G136C,-3.25
9,G84A G136A,-0.313
10,G84A C93U C108G A137U,≤ -4.2
11,G83U G112U,-4
12,G83U A150G,-3.14
13,G83A U101C,-2.23
14,G83U A113U,-2.14
15,U82C C93G C116G C118U G140A A150C,≤ -4.2
16,G84A A97G,-2.34
17,G84A A97U,-1.12
18,G81U C85A C95A,-1.06
19,G84A A91U G126U G143U,≤ -4.2
20,G83A A91G C93U C149A,≤ -4.2
21,G83C C95G U148G,≤ -4.2
22,U82G C99G,-0.787
23,U82G C96G C118U G141A A147U,-1.93
24,G83U C95G G126U,-1.85

row,Variant,polymerase ribozyme fitness (log ratio)
1,G83A A115G A150G,-2.88
2,U82A A120C U130C G143U,-2.44
3,G84A C118U G141A,0.213
4,U82G A98G G117A A122U,0.376
5,G83C U145C,-2.18
6,G83C U145G,-0.686
7,U82A C129A,-2.19
8,G81C G126C U145C,0.873
9,G83C G133A,-3.62
10,G83U G128U,-3.22
11,G83A C85U A115U C116U,-2.68
12,U82A G92C,0.508
13,U82A G92U,-0.55
14,G83C U109A A115C G140C,≤ -4.2
15,G81A A115U A142U,-2.42
16,G83U C87U,-1.25
17,G83U G94A,-0.328
18,U82A G86A A98U U134A,-3.68
19,G81A C87U A91U G112U G143A,≤ -4.2
20,G81C C93U U130G C131U A150U,≤ -4.2
21,G81A C118A,-1.82
22,G81A C96U C114G A115U,-3.6
23,G81U,-0.702
24,G81C,-0.471

row,Variant,polymerase ribozyme fitness (log ratio)
1,G83A A115G,-1.64
2,G81A U148C,-1.48
3,U82G U101G,0.433
4,G81A A97U,-0.297
5,U82C G94A,-1.35
6,G81U G94C U144A,-0.944
7,G83C C93G,≤ -4.2
8,G83C C93U,-2.49
9,G83C C96U A147U G152A,-1.98
10,G84A C95A,-0.531
11,G84A C95G,-0.784
12,G83A A119C A137G G143A,-2.54
13,G83U G126A,-0.669
14,G83A C99U,-2.05
15,G83U C132U,-1.33
16,G83U C87G C99U,≤ -4.2
17,G83A C105A,-3.15
18,G83A G126C,0.173
19,G83U C96A,-0.528
20,G83U G100U C103A C131U,≤ -4.2
21,G83C C85G A122U,≤ -4.2
22,G83A G128A,-3.83
23,U82C G94U A98G A107C,≤ -4.2
24,U82G G84A G86U C118G,≤ -4.2

row,Variant,polymerase ribozyme fitness (log ratio)
1,G81C A98U A107G,≤ -4.2
2,G83U C105G A107G U135G G152C,≤ -4.2
3,G84A G100C,≤ -4.2
4,G83A A97G,-0.594
5,G83A A97U,0.538
6,U82G C87U G92U A98G,-2.69
7,G83U C95U C123U G143U,-3.65
8,G83U U102C,-1.16
9,U82G C87U U146C,-0.959
10,G84A A142C,-1.65
11,G84A A142G,-1.82
12,G83U G94C C116U,-2.08
13,G84A C123U,-0.156
14,G84A C123G,-0.679
15,G81C G117A A119C,0.184
16,U82C G86A,-2.06
17,G84A G88U,-3.57
18,G84A G88A,≤ -4.2
19,G83C A121U,0.406
20,G83C G126U,0.246
21,G83C G126A,0.0538
22,U82G A110G C125G A137U,≤ -4.2
23,G84A C85A G86A G92U U101C,≤ -4.2
